# Reference: the RNAGym collection of RNA variant scans (doi:10.1073/pnas.2313332121)
# B1: TPR t1 (parent)
# chain: GACCAAUCUGCCCUCAGAGCUCGAGAACAUCUUCGGAUGCAGAGGAGGCAGGCUUCGGUGGCGCGAUAGCGCCAACGUCCUCAACCUCCAAUGCAUCCCACCACAUGAUGAUGCCUGAAGAGCCUUGGUUUUUUG
# Variants of: B1
# Test: polymerase ribozyme fitness, log enrichment relative to wild type (log ratio); higher = more active; in vitro selection for triplet polymerase activity
# How it was run: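 Mutant libraries were PCR-built and transcribed for each subunit of a heterodimeric triplet polymerase ribozyme and selected for one round in triplicate at −7 °C, frozen, before gel excision of extended constructs and streptavidin-bead capture. Input and output libraries were Illumina-sequenced, keeping genotypes with ≥10 input reads and ≥1 read per output. Fitness is a logarithmic ratio of genotype to wild-type enrichment, in base 2, using inverse-variance-weighted replicate averages.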
row,Variant,polymerase ribozyme fitness (log ratio)
1,C13G A26G C49A U96A,-5.63
2,U9G U109A,-3.09
3,C49U C62A U96C,-1.91
4,A2G C73U,-0.754
5,G77U U96A,-1.04
6,C79U A95C A118U,-0.263
7,U9A G45A,-0.107
8,G10A C56A G110A,-0.729
9,A6C C11A C85U U112G,-2.47
10,C40G U81C,-1.19
11,A108U C124A,-4.18
12,G45A G60U C64U C94U A105U C124A G127A,-5.55
13,U38A G127A,-2.5
14,A37G G69U A100U C114G,-1.72
15,A100C U133G,-1.12
16,A37C A95U,-0.484
17,U55A C101U A121U,1.89
18,C28U C82A,-2.3
19,A6C C22A U87C G113C,-5.35
20,G42U U78C,-1.45
21,G69C C101A,-2.4

row,Variant,polymerase ribozyme fitness (log ratio)
1,C8G U32A A43U G47U G52C C86A U96A,-6.26
2,C11A C15G U21G G63U A90U G93U C115U C124U G127U,-6.26
3,A6C G47A,0.295
4,C72A U78G,-1.71
5,A37C C56G G58A G63C G77C,-3.59
6,G48C G61U,0.754
7,C49U G71C C94G,-2.87
8,C62G A84U A108G,-5.29
9,A26U C72A,-2.97
10,C8G A18U G45A C79U A100U A103C C114U,-4.29
11,C8A G47C C56G C82U U87A C101U G107U C115U A118C,-6.49
12,G77U U125A,-1.21
13,A5C C8U C34A A75U C79U C101G,-3.24
14,A43U C97A,-7.59
15,C64U G128A,-1.84
16,G60C A111U U116C,-5.57
17,G48A C73U C85A,-1.26
18,G60U U116C U132A,-0.473
19,G47A A95C,-1.79
20,A16U G135U,-1.8
21,G45C G61U C86U U87G G93C,-2.62

row,Variant,polymerase ribozyme fitness (log ratio)
1,G36C C102U,-3.5
2,G77A C89A,-1.73
3,G47U C94G,-3.51
4,C34A C123G,-0.401
5,C79A G127U,-2.57
6,C80U,-0.463
7,C8A A16C C40U C72A U92G C123U U130A,-3.93
8,U9A G71U C104U,0.24
9,U14G C72U,-1.52
10,A37U G42C,-1.65
11,C40U C88U,-0.588
12,C4G U9A C56G U112A G117A G120C,-6.24
13,C13U C20U G61U C114A,0.523
14,G58C C97U,-0.321
15,A46U C72G,-1.4
16,U38G G42C A43U G71C C82U C115U,-4.36
17,G71C U87C,-1.45
18,G60A U78G A84U G93A C102A,-4.94
19,C11U C22G A26C,-3.57
20,C12A C22A C40U G58C C86A U112G,-5.73
21,A18C G19U,-5.8

row,Variant,polymerase ribozyme fitness (log ratio)
1,C11U C86A C104U,-1.37
2,U55C C82A,0.163
3,C4U C56A,-0.607
4,C56U G93U U116C,-1.7
5,G71C C98U,-1.75
6,G17U U109A,-6.56
7,C56G A74U U81A U87A,-4.29
8,A2C G110C,-6.21
9,C8U C102A,-1.17
10,A29U A50U U78A G93C,-4.11
11,A16C C97U A100U,-3.88
12,C99U G110C,-6.69
13,C11U C15U G61A U78A G93A,-2.54
14,A37C G120A,1.02
15,A2G C13U C53U C72G,-0.398
16,G10C U106C G107C,-5.64
17,C11A C64A A108U G110A,-6.85
18,C15A C73U,-2.31
19,U32C C99U,-2.13
20,A26U C70A,-5.16
